Data from the supplement of paper PMC9112550, “Optimization of the antimicrobial peptide Bac7 by deep mutational scanning” (BMC Biology, 2022).

Tested on: Escherichia coli TOP10
Assay: shrunken log2 fold change of peptide-encoding DNA abundance (4.5 h post-induction vs induction); higher = less antimicrobial activity (less host growth inhibition)
Conditions: time post-induction: 4.5 h; library: site-saturation at positions 5, 18, 19, 20
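Also: peptides expressed intracellularly from a pBAD plasmid library in pooled LB shake-flask culture, induced with 0.3% L-arabinose, DNA abundance read by NGS, three biological replicates, DESeq2 with apeglm shrinkage.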

## RRIRLRPPRLPRPRPRPWNCPRP
  shrunken log2 fold change: -0.493

## RRIRLRPPRLPRPRPRPWPQPRP
  shrunken log2 fold change: 0.244

## RRIRLRPPRLPRPRPRPWQGPRP
  shrunken log2 fold change: -0.00192

## RRIRLRPPRLPRPRPRPWSLPRP
  shrunken log2 fold change: -0.195

## RRIRLRPPRLPRPRPRPWSYPRP
  shrunken log2 fold change: -1.41

## RRIRLRPPRLPRPRPRPWYFPRP
  shrunken log2 fold change: -0.231

## RRIRLRPPRLPRPRPRPWYHPRP
  shrunken log2 fold change: 0.112

## RRIRLRPPRLPRPRPRPWYIPRP
  shrunken log2 fold change: -0.137

## RRIRLRPPRLPRPRPRPYAHPRP
  shrunken log2 fold change: -0.0393

## RRIRLRPPRLPRPRPRPYAWPRP
  shrunken log2 fold change: 0.0863

## RRIRLRPPRLPRPRPRPYCFPRP
  shrunken log2 fold change: -0.909

## RRIRLRPPRLPRPRPRPYCYPRP
  shrunken log2 fold change: -0.238

## RRIRLRPPRLPRPRPRPYEMPRP
  shrunken log2 fold change: -0.468

## RRIRLRPPRLPRPRPRPYEYPRP
  shrunken log2 fold change: -0.132

## RRIRLRPPRLPRPRPRPYFCPRP
  shrunken log2 fold change: -0.34

## RRIRLRPPRLPRPRPRPYFFPRP
  shrunken log2 fold change: -0.45

## RRIRLRPPRLPRPRPRPYFPPRP
  shrunken log2 fold change: -0.802

## RRIRLRPPRLPRPRPRPYFRPRP
  shrunken log2 fold change: -0.78

## RRIRLRPPRLPRPRPRPYGTPRP
  shrunken log2 fold change: -0.68

## RRIRLRPPRLPRPRPRPYIAPRP
  shrunken log2 fold change: -0.261

## RRIRLRPPRLPRPRPRPYIMPRP
  shrunken log2 fold change: -1.45

## RRIRLRPPRLPRPRPRPYIPPRP
  shrunken log2 fold change: -0.669

## RRIRLRPPRLPRPRPRPYIYPRP
  shrunken log2 fold change: -1.24

## RRIRLRPPRLPRPRPRPYKFPRP
  shrunken log2 fold change: -0.447

## RRIRLRPPRLPRPRPRPYKSPRP
  shrunken log2 fold change: 0.0344

## RRIRLRPPRLPRPRPRPYMNPRP
  shrunken log2 fold change: -1.06

## RRIRLRPPRLPRPRPRPYPIPRP
  shrunken log2 fold change: 0.107

## RRIRLRPPRLPRPRPRPYPPPRP
  shrunken log2 fold change: -0.866

## RRIRLRPPRLPRPRPRPYPQPRP
  shrunken log2 fold change: -0.364

## RRIRLRPPRLPRPRPRPYPTPRP
  shrunken log2 fold change: -0.317

## RRIRLRPPRLPRPRPRPYSLPRP
  shrunken log2 fold change: -0.0459

## RRIRLRPPRLPRPRPRPYTEPRP
  shrunken log2 fold change: -0.284

## RRIRLRPPRLPRPRPRPYTPPRP
  shrunken log2 fold change: -0.484

## RRIRLRPPRLPRPRPRPYVVPRP
  shrunken log2 fold change: -0.481

## RRIRLRPPRLPRPRPRPYYKPRP
  shrunken log2 fold change: -0.569

## RRIRMRPPRLPRPRPRPAAWPRP
  shrunken log2 fold change: 0.11

## RRIRMRPPRLPRPRPRPACEPRP
  shrunken log2 fold change: 0.903

## RRIRMRPPRLPRPRPRPACGPRP
  shrunken log2 fold change: 0.811

## RRIRMRPPRLPRPRPRPADWPRP
  shrunken log2 fold change: 0.905

## RRIRMRPPRLPRPRPRPAEGPRP
  shrunken log2 fold change: 0.265

## RRIRMRPPRLPRPRPRPAEMPRP
  shrunken log2 fold change: 0.0981

## RRIRMRPPRLPRPRPRPAEWPRP
  shrunken log2 fold change: 0.375

## RRIRMRPPRLPRPRPRPAFFPRP
  shrunken log2 fold change: 0.403

## RRIRMRPPRLPRPRPRPAHYPRP
  shrunken log2 fold change: -0.248

## RRIRMRPPRLPRPRPRPAKHPRP
  shrunken log2 fold change: 0.542

## RRIRMRPPRLPRPRPRPALDPRP
  shrunken log2 fold change: 0.94

## RRIRMRPPRLPRPRPRPAMAPRP
  shrunken log2 fold change: 0.778

## RRIRMRPPRLPRPRPRPAMKPRP
  shrunken log2 fold change: -0.00492

## RRIRMRPPRLPRPRPRPAMPPRP
  shrunken log2 fold change: 0.548

## RRIRMRPPRLPRPRPRPAMSPRP
  shrunken log2 fold change: 0.177

## RRIRMRPPRLPRPRPRPANRPRP
  shrunken log2 fold change: 0.21

## RRIRMRPPRLPRPRPRPAPFPRP
  shrunken log2 fold change: 0.575

## RRIRMRPPRLPRPRPRPAQEPRP
  shrunken log2 fold change: 0.0616

## RRIRMRPPRLPRPRPRPAQYPRP
  shrunken log2 fold change: 0.377

## RRIRMRPPRLPRPRPRPAREPRP
  shrunken log2 fold change: 1.86

## RRIRMRPPRLPRPRPRPAVMPRP
  shrunken log2 fold change: 0.782

## RRIRMRPPRLPRPRPRPAVPPRP
  shrunken log2 fold change: 0.328

## RRIRMRPPRLPRPRPRPAYCPRP
  shrunken log2 fold change: 0.075

## RRIRMRPPRLPRPRPRPAYIPRP
  shrunken log2 fold change: 0.768

## RRIRMRPPRLPRPRPRPCARPRP
  shrunken log2 fold change: 0.343

## RRIRMRPPRLPRPRPRPCDAPRP
  shrunken log2 fold change: 0.261

## RRIRMRPPRLPRPRPRPCFIPRP
  shrunken log2 fold change: -0.496

## RRIRMRPPRLPRPRPRPCGHPRP
  shrunken log2 fold change: 0.0237

## RRIRMRPPRLPRPRPRPCICPRP
  shrunken log2 fold change: -0.0505

## RRIRMRPPRLPRPRPRPCIWPRP
  shrunken log2 fold change: 0.0563

## RRIRMRPPRLPRPRPRPCLAPRP
  shrunken log2 fold change: 0.215

## RRIRMRPPRLPRPRPRPCMNPRP
  shrunken log2 fold change: -0.217

## RRIRMRPPRLPRPRPRPCNKPRP
  shrunken log2 fold change: -0.372

## RRIRMRPPRLPRPRPRPCPCPRP
  shrunken log2 fold change: 0.495

## RRIRMRPPRLPRPRPRPCPYPRP
  shrunken log2 fold change: -0.126

## RRIRMRPPRLPRPRPRPCQLPRP
  shrunken log2 fold change: -0.00804

## RRIRMRPPRLPRPRPRPCQTPRP
  shrunken log2 fold change: 0.0245

## RRIRMRPPRLPRPRPRPCRLPRP
  shrunken log2 fold change: 0.0956

## RRIRMRPPRLPRPRPRPCRRPRP
  shrunken log2 fold change: 0.0172

## RRIRMRPPRLPRPRPRPCSSPRP
  shrunken log2 fold change: -0.0756

## RRIRMRPPRLPRPRPRPCTMPRP
  shrunken log2 fold change: -0.218

## RRIRMRPPRLPRPRPRPCVDPRP
  shrunken log2 fold change: 0.0636

## RRIRMRPPRLPRPRPRPCWAPRP
  shrunken log2 fold change: 0.168

## RRIRMRPPRLPRPRPRPCWIPRP
  shrunken log2 fold change: -0.351

## RRIRMRPPRLPRPRPRPCWYPRP
  shrunken log2 fold change: 0.092

## RRIRMRPPRLPRPRPRPCYYPRP
  shrunken log2 fold change: -0.199

## RRIRMRPPRLPRPRPRPDAPPRP
  shrunken log2 fold change: 3.16

## RRIRMRPPRLPRPRPRPDCAPRP
  shrunken log2 fold change: 1.95

## RRIRMRPPRLPRPRPRPDCQPRP
  shrunken log2 fold change: 1.37

## RRIRMRPPRLPRPRPRPDDAPRP
  shrunken log2 fold change: 0.225

## RRIRMRPPRLPRPRPRPDDEPRP
  shrunken log2 fold change: 0.123

## RRIRMRPPRLPRPRPRPDGYPRP
  shrunken log2 fold change: 0.818

## RRIRMRPPRLPRPRPRPDHDPRP
  shrunken log2 fold change: -0.0765

## RRIRMRPPRLPRPRPRPDHLPRP
  shrunken log2 fold change: -0.0674

## RRIRMRPPRLPRPRPRPDHTPRP
  shrunken log2 fold change: 0.329

## RRIRMRPPRLPRPRPRPDKEPRP
  shrunken log2 fold change: -0.01

## RRIRMRPPRLPRPRPRPDKHPRP
  shrunken log2 fold change: 0.253

## RRIRMRPPRLPRPRPRPDLLPRP
  shrunken log2 fold change: 2.73

## RRIRMRPPRLPRPRPRPDMWPRP
  shrunken log2 fold change: 0.805

## RRIRMRPPRLPRPRPRPDPEPRP
  shrunken log2 fold change: 0.769

## RRIRMRPPRLPRPRPRPDPLPRP
  shrunken log2 fold change: 0.255

## RRIRMRPPRLPRPRPRPDPMPRP
  shrunken log2 fold change: 0.501

## RRIRMRPPRLPRPRPRPDQKPRP
  shrunken log2 fold change: -0.0396

## RRIRMRPPRLPRPRPRPDRGPRP
  shrunken log2 fold change: 0.367

## RRIRMRPPRLPRPRPRPDRWPRP
  shrunken log2 fold change: 0.926

## RRIRMRPPRLPRPRPRPDSCPRP
  shrunken log2 fold change: -0.00101

## RRIRMRPPRLPRPRPRPDSMPRP
  shrunken log2 fold change: 0.025

## RRIRMRPPRLPRPRPRPDSNPRP
  shrunken log2 fold change: 0.754

## RRIRMRPPRLPRPRPRPDVCPRP
  shrunken log2 fold change: 0.0762

## RRIRMRPPRLPRPRPRPDVRPRP
  shrunken log2 fold change: 0.111

## RRIRMRPPRLPRPRPRPDWAPRP
  shrunken log2 fold change: 0.469

## RRIRMRPPRLPRPRPRPDWFPRP
  shrunken log2 fold change: 0.235

## RRIRMRPPRLPRPRPRPDWGPRP
  shrunken log2 fold change: 0.0473

## RRIRMRPPRLPRPRPRPDWVPRP
  shrunken log2 fold change: 0.0143

## RRIRMRPPRLPRPRPRPDYWPRP
  shrunken log2 fold change: 0.441

## RRIRMRPPRLPRPRPRPEAMPRP
  shrunken log2 fold change: 0.204

## RRIRMRPPRLPRPRPRPEAQPRP
  shrunken log2 fold change: 3.76

## RRIRMRPPRLPRPRPRPECDPRP
  shrunken log2 fold change: 2.82

## RRIRMRPPRLPRPRPRPECRPRP
  shrunken log2 fold change: 2.38

## RRIRMRPPRLPRPRPRPEDGPRP
  shrunken log2 fold change: 2.85

## RRIRMRPPRLPRPRPRPEFEPRP
  shrunken log2 fold change: -0.0141

## RRIRMRPPRLPRPRPRPEFPPRP
  shrunken log2 fold change: 0.745

## RRIRMRPPRLPRPRPRPEFVPRP
  shrunken log2 fold change: 0.383

## RRIRMRPPRLPRPRPRPEGNPRP
  shrunken log2 fold change: 0.182

## RRIRMRPPRLPRPRPRPEGQPRP
  shrunken log2 fold change: -0.00185

## RRIRMRPPRLPRPRPRPEITPRP
  shrunken log2 fold change: 3.07

## RRIRMRPPRLPRPRPRPEKCPRP
  shrunken log2 fold change: -0.0105

## RRIRMRPPRLPRPRPRPEKNPRP
  shrunken log2 fold change: 2.16

## RRIRMRPPRLPRPRPRPEKTPRP
  shrunken log2 fold change: -0.0246

## RRIRMRPPRLPRPRPRPELEPRP
  shrunken log2 fold change: 4.13

## RRIRMRPPRLPRPRPRPELIPRP
  shrunken log2 fold change: 3.16

## RRIRMRPPRLPRPRPRPEMQPRP
  shrunken log2 fold change: 2.83

## RRIRMRPPRLPRPRPRPENNPRP
  shrunken log2 fold change: 1.53

## RRIRMRPPRLPRPRPRPEPVPRP
  shrunken log2 fold change: 1.01

## RRIRMRPPRLPRPRPRPEQCPRP
  shrunken log2 fold change: -0.00138

## RRIRMRPPRLPRPRPRPEQSPRP
  shrunken log2 fold change: 3.19

## RRIRMRPPRLPRPRPRPEQTPRP
  shrunken log2 fold change: 0.057

## RRIRMRPPRLPRPRPRPERQPRP
  shrunken log2 fold change: 2.84

## RRIRMRPPRLPRPRPRPERWPRP
  shrunken log2 fold change: 1.5

## RRIRMRPPRLPRPRPRPESPPRP
  shrunken log2 fold change: 2.01

## RRIRMRPPRLPRPRPRPETFPRP
  shrunken log2 fold change: 0.211

## RRIRMRPPRLPRPRPRPETPPRP
  shrunken log2 fold change: 3.09

## RRIRMRPPRLPRPRPRPEVAPRP
  shrunken log2 fold change: 3.75

## RRIRMRPPRLPRPRPRPEVDPRP
  shrunken log2 fold change: 0.784

## RRIRMRPPRLPRPRPRPEWYPRP
  shrunken log2 fold change: 0.0183

## RRIRMRPPRLPRPRPRPEYCPRP
  shrunken log2 fold change: 0.0929

## RRIRMRPPRLPRPRPRPEYNPRP
  shrunken log2 fold change: 0.25

## RRIRMRPPRLPRPRPRPFCRPRP
  shrunken log2 fold change: 0.315

## RRIRMRPPRLPRPRPRPFDRPRP
  shrunken log2 fold change: 0.00911

## RRIRMRPPRLPRPRPRPFFAPRP
  shrunken log2 fold change: 0.445

## RRIRMRPPRLPRPRPRPFFPPRP
  shrunken log2 fold change: -1.89e-05

## RRIRMRPPRLPRPRPRPFGDPRP
  shrunken log2 fold change: 0.0178

## RRIRMRPPRLPRPRPRPFHNPRP
  shrunken log2 fold change: -0.00804

## RRIRMRPPRLPRPRPRPFKFPRP
  shrunken log2 fold change: -0.012

## RRIRMRPPRLPRPRPRPFKIPRP
  shrunken log2 fold change: -0.0716
